Tested on: MS2 coat protein
Test: apparent KD of MS2 coat protein; designed switch direction (-1 OFF switch, 1 ON switch): 1; higher = weaker reporter binding
Procedure, shortened: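 Designed RNA switches were transcribed on Illumina chips by stalled E. coli RNA polymerase and titrated with SNAP-549-labelled MS2 coat protein from 0.7 or 1.5 nM, doubling to 3 µM. Step length ran from 0.8–1.5 h at the lowest concentration to 10–20 min at the highest. The apparent KD is the median over clusters for each design, from curve-fitted normalised cluster fluorescence.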

[1] = input ligand: microRNA oligo, concentration not stated
[2] = Eterna round: R95, input ligand: microRNA oligo, concentration not stated
[3] = Eterna round: R95, input ligand: FMN 200 uM
[4] = Eterna round: R95, input ligand: none

Row | Sequence | apparent KD of MS2 coat protein (input ligand: FMN 200 uM) | apparent KD of MS2 coat protein [1] | apparent KD of MS2 coat protein (input ligand: none) | apparent KD of MS2 coat protein [2] | apparent KD of MS2 coat protein [3] | apparent KD of MS2 coat protein [4]
1 | GCCGCGUUUCGCGCCUACAUGAGGAUCACCCAUGUAUGUGGGCAGGAUAUCGUUUGCUUUGCAAACGAGAAGGGCUGUUGUGGC [salish99_SSNG3_R04_010] (Eterna round: R96, puzzle: Same State NG 3) | 19.7 nM | 21.2 nM | 30 nM | – | – | –
2 | AGCAAAAUAAGCAAGGAUAUGUAAUUUGGCACAUGAGGAUCACCCAUGUCAAUCCAUUUUUUUGAACAGAAGGUGCAUUUUUUUU [ak first solve] (puzzle: Same State 2) | – | – | – | 36.4 nM | – | –
3 | AUAGUUAGCAAAGGAUAUGGGAAAGGAAGUGUACCAGAAGGUUGGCUACUGGGCUUACAUGAGGAUCACCCAUGUCCCGGUAGC [PowerStrip SSNG 1.30] (Eterna round: R96, puzzle: Same State NG 1) | 14.6 nM | 14.2 nM | 15.4 nM | – | – | –
4 | GUUACAUGAGGAUCACCCAUGUAUGUGUGGGAGUAAGUGUCUUAGGAUAUCUGUUAUGUAAUUUAAGAGAAGGAAGAUUGUUGU [JMF's solution 34] (Eterna round: R96, puzzle: Same State NG 3) | 282 nM | 300 nM | 296 nM | – | – | –
5 | AGGAAGGAGGCUGAGGAUAUCGUAAGGAGGACAUGAGGAUCACCCAUGUGUAUAGGAUUGGAGGACGAGAAGGCAGAGGAGUGGG [JR_SS2_Sub049] (puzzle: Same State 2) | – | – | – | 25 nM | 49.8 nM | 29.4 nM
6 | AUUAUUUAUGCAGGAUAUGAUUAACAUGAGGAUCACCCAUGUGGUGUUGUGAGUAAGGAGAGUGAUCAGAAGGGCAUUAUUUUU [JMF's solution 45] (Eterna round: R96, puzzle: Same State NG 2) | 634 nM | 214 nM | 355 nM | – | – | –
7 | AAAAGAAACAUGUACCUGAGUACAUGAAAACAUGAGGAUCACCCAUGUAACAAGCUGGGUGCUCGUCUUAUAAGAAA [JL pocket 1] (Eterna round: R96, puzzle: Sensor for hsa-mir-208a) | 137 nM | 22.3 nM | 77.7 nM | – | – | –
8 | UAACGCGCAUGCAAGGAUAUGUGCAGAGCUACAUGAGGAUCACCCAUGUGGUUAUGCUAUUGAAAACAGAAGGUGCCCUCGCUCA [Ceties] (Eterna round: R96, puzzle: Same State 2) | 20.7 nM | 16.4 nM | 22.7 nM | – | – | –
9 | AUUAUUAAUGCAGGAUAUGAUUAACAUGAGGAUCACCCAUGUGGUGUUGUGAGUAAGGAGAGUGAUCAGAAGGGCAUCUUUUUU [JMF's solution 10] (Eterna round: R96, puzzle: Same State NG 2) | 470 nM | 312 nM | 359 nM | – | – | –
10 | CGUCCGGCCUGUGCUGGCCGGUGGCUUGUACAUGAGGAUCACCCAUGUUCUUGUGCUGGCUUUUUGCUCGUCUUGUG [salish99_mir208a_021] (puzzle: Sensor for hsa-mir-208a) | – | – | – | 18.9 nM | 37 nM | 43.8 nM
11 | ACUAUUAAUGCAGGAUAUGAUUAACAUGAGGAUCACCCAUGUGGUGUUGUGAGUAAGGAGAGUGAUCAGAAGGGCAUUUUUUUU [JMF's solution 37] (Eterna round: R96, puzzle: Same State NG 2) | 992 nM | 466 nM | 629 nM | – | – | –
12 | GCCAUCGCAUGAGGAUAUGGCACCGUUUCGGUGCCAGAAGGCAUGUCGUAAGACAUGAGGAUCACCCAUGUAGUUAAGAUGGCA [JL Fiskers NG1ss - 33 mod 8] (Eterna round: R96, puzzle: Same State NG 1) | 219 nM | 101 nM | 407 nM | – | – | –
13 | GGAGCCGGCACCGAGGAUAUUCAUAUUAAAACAUGAGGAUCACCCAUGUACCGGAGAACCGGUUGGGAGAAGGCGGAUCGGCUCG [Xeonanis - 24] (puzzle: Same State 2) | – | – | – | 333 nM | 35.4 nM | 596 nM
14 | AAUUUAAUACAUGAGGAUCACCCAUGUAAUACUUGUAAGAUCAAGGAUAUCAGCUCGAAUAGAGCUGAGAAGGUGAUCACAUGU [SSNG3/19-D1] (Eterna round: R96, puzzle: Same State NG 3) | – | 24.9 nM | – | – | – | –
15 | GGUGCGAAUAAAGCCUACAUGAGGAUCACCCAUGUAUGUAGGCAGGAUAUCGUAUGCAAAGCAUACGAGAAGGGCUGUCGCACC [Mat - Same State NG 3 - JL Mod - D47] (Eterna round: R96, puzzle: Same State NG 3) | 30.1 nM | 56.9 nM | 85.8 nM | – | – | –
16 | AUUGCUUUCGCAGGAUAUGAUGCGAAAAUUGCGUCAGAAGGGUGGAGUCUCUCAUUGCUAGAGGACAUGAGGAUCACCCAUGUC [SameState NG1 #85] (Eterna round: R96, puzzle: Same State NG 1) | 188 nM | 309 nM | 541 nM | – | – | –

Row | Sequence | apparent KD of MS2 coat protein (input ligand: FMN 200 uM) | apparent KD of MS2 coat protein [1] | apparent KD of MS2 coat protein (input ligand: none) | apparent KD of MS2 coat protein [2] | apparent KD of MS2 coat protein [3] | apparent KD of MS2 coat protein [4]
17 | CAGCGCUGUCGAGAGGAUAUGCAGUGAUGGACAUGAGGAUCACCCAUGUUAGCGAUAGCAUUACAGUAGAAGGCUCUACAGCUGC [Soteed - 14] (puzzle: Same State 2) | – | – | – | 16.4 nM | 13 nM | 19.5 nM
18 | GGAGCCGGCCUAGGAUAUUUCAUGAAAAAACAUGAGGAUCACCCAUGUAGGCCAGAAGGCCUUGGGAAGAAGGAGGUCGGCUCC [Loop Effect - G24] (Eterna round: R96, puzzle: Same State NG 2) | 32.1 nM | 151 nM | 472 nM | – | – | –
19 | AUUAAACAUGAGGAUCACCCAUGUCAACAAAGUCGAGGAUAUGGGCAUAUUAUCUUAUUUCCAGAAGGCGAAUAAU [salish99_ss1_r3_088] (puzzle: Same State 1) | – | – | – | 131 nM | – | –
20 | CAGCGCUGUCGAGAGGAUAUGCGGUGAUGGACAUGAGGAUCACCCAUGUUAGCGACAGCAUUACGGUAGAAGGCUUCACAGCUGC [Soteed Omei mod 15] (puzzle: Same State 2) | – | – | – | 33.3 nM | 61 nM | 41.8 nM
21 | ACUUGCUUUUUGCUCGUAUAUUGUCCGUUACAUGAGGAUCACCCAUGUGUAUAUUAUGUGUUGUUUUUGAUACGUGU [JR_SHM208A_Sub069] (puzzle: Sensor for hsa-mir-208a) | – | – | – | 33.9 nM | 36.2 nM | 43.7 nM
22 | CGUCCAGCCUGAGCUGGACAAAAGCAUGUACAUGAGGAUCACCCAUGUUCAUGUACAAGCUUUUUGCUCGUCUUACA [salish99_208a_r3_091x] (puzzle: Sensor for hsa-mir-208a) | – | – | – | 16.2 nM | 691 nM | 695 nM
23 | AUUAUCAAUGCAGGAUAUGAUUAACAUGAGGAUCACCCAUGUGGUGUUGUGAGUAAGGAGAGUGAUCAGAAGGGCAUUUUUUUU [JMF's solution 26] (Eterna round: R96, puzzle: Same State NG 2) | 575 nM | 261 nM | 475 nM | – | – | –
24 | UAGUGCUGUUGAGAGGAUAUGCGGCGACGGACAUGAGGAUCACCCAUGUUAGCGACAGCGUUGCGGCAGAAGGCUCUGCCCGCUA [Soteed Omei mod 52] (puzzle: Same State 2) | – | – | – | 27.4 nM | 13.1 nM | 33.3 nM
25 | UUGAAGAAUUAAGGAUAUUGAUUACAUAUGUUUAACAUGAGGAUCACCCAUGUGGGUUGCGGUAUCGAGAAGGUAAAUUAAUAG [Mat - same State NG 2 - JL mod - D81] (Eterna round: R96, puzzle: Same State NG 2) | 168 nM | 181 nM | 174 nM | – | – | –
26 | AGUCCAGCAUGAGCUGGACAAAAGCAUGUACAUGAGGAUCACCCAUGUUCAUGUACAAGCUUUUUGCUCGUCAAAAG [Mat - hsa-mir-208a - Mod of JL - 70] (puzzle: Sensor for hsa-mir-208a) | – | – | – | 19.6 nM | 225 nM | 320 nM
27 | UGGCCAGCCUGUGCUGGGCUUUAGCAUGUACAUGAGGAUCACCCAUGUCGUGUACAUGCUUUUUGCUCGUCUUUAAA [Photon Torp-06] (puzzle: Sensor for hsa-mir-208a) | – | – | – | 23.1 nM | 35.8 nM | 125 nM
28 | UGUUGUAUUACAGGAUAUCUAUGAUUUUGAUUUAGAGAAGGGUAUUCACAUGAGGAUCACCCAUGUAUAUACGAGGAAGUUGUG [JMF's solution 64] (Eterna round: R96, puzzle: Same State NG 1) | – | 40.4 nM | – | – | – | –
29 | UAGAUUAGAAGUUAACAUGAGGAUCACCCAUGUAUUGGAACAGAGGAUAUGCAUGUUUGAUAGUAGCAGAAGGCUGAAGGUGGA [JR_SSNG3_Sub025] (Eterna round: R96, puzzle: Same State NG 3) | – | 68.4 nM | – | – | – | –
30 | AAAAUGUGAUGUUACAUGAGGAUCACCCAUGUAGUGACAACUAAGGAUAUCUGAAAAAAAGGAGAGGAGAAGGUAGGAUCACAA [AK SSNG3-V2-16.1] (Eterna round: R96, puzzle: Same State NG 3) | 25.7 nM | 26.4 nM | 33.2 nM | – | – | –
31 | GGAGCCAAGGCAGGAUAUUCAUAUUAAAUACAUGAGGAUCACCCAUGUUAGGCCAGAAGGCCUUGGGAGAAGGGCCAUGGCUCG [Xeonanis - 13 mod20] (Eterna round: R96, puzzle: Same State NG 2) | 17 nM | 34.1 nM | 52.5 nM | – | – | –

— the supplement of paper PMC9170038
